The supplement of paper PMC10567573

B1: ANKRD40 (parent)
chain: YQELLRVCCCELGVNPDQVEKIRK
B2: P2RY14 (parent)
chain: KLLSVIVWMLMLLLAVPNIILTNQ

Variants of: B1
Assay: protein stability index of a GFP-peptide fusion (GPS, HEK-293T) (PSI 1-6); higher = more stable
Settings: c terminus: a fixed tail appended
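Further: lentivirally expressed fusions sorted by FACS into six bins by GFP to DsRed ratio, PSI derived from sequencing read proportions per bin multiplied by bin number.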

| Variant | protein stability index |
| --- | --- |
| YQELLRVCCCELGVNPDQVEKIPK [R23P] | 1.57 |
| YQELLRVCCCELGVNPDQVEKIQK [R23Q] | 1.4 |
| YQELLRVCCCELGVNPDQVEKISK [R23S] | 1.72 |
| YQELLRVCCCELGVNPDQVEKITK [R23T] | 2.08 |
| YQELLRVCCCELGVNPDQVEKIVK [R23V] | 2.9 |
| YQELLRVCCCELGVNPDQVEKIWK [R23W] | 1.72 |
| YQELLRVCCCELGVNPDQVEKIYK [R23Y] | 1.8 |
| YQELLRVCCCELGVNPDQVEKIRA [K24A] | 1.36 |
| YQELLRVCCCELGVNPDQVEKIRC [K24C] | 1 |
| YQELLRVCCCELGVNPDQVEKIRD [K24D] | 2.13 |
| YQELLRVCCCELGVNPDQVEKIRE [K24E] | 1.62 |
| YQELLRVCCCELGVNPDQVEKIRF [K24F] | 3.37 |
| YQELLRVCCCELGVNPDQVEKIRG [K24G] | 2.46 |
| YQELLRVCCCELGVNPDQVEKIRH [K24H] | 1.59 |
| YQELLRVCCCELGVNPDQVEKIRI [K24I] | 1.6 |
| YQELLRVCCCELGVNPDQVEKIRL [K24L] | 2.07 |
| YQELLRVCCCELGVNPDQVEKIRM [K24M] | 1.66 |
| YQELLRVCCCELGVNPDQVEKIRN [K24N] | 1.61 |
| YQELLRVCCCELGVNPDQVEKIRP [K24P] | 1.35 |
| YQELLRVCCCELGVNPDQVEKIRQ [K24Q] | 2.12 |
| YQELLRVCCCELGVNPDQVEKIRR [K24R] | 1.6 |
| YQELLRVCCCELGVNPDQVEKIRS [K24S] | 1.66 |
| YQELLRVCCCELGVNPDQVEKIRT [K24T] | 2 |
| YQELLRVCCCELGVNPDQVEKIRV [K24V] | 1.61 |
| YQELLRVCCCELGVNPDQVEKIRW [K24W] | 1.27 |

Variants of: B2
Assay: as above
Settings: c terminus: a fixed tail appended

| Variant | protein stability index |
| --- | --- |
| DLLSVIVWMLMLLLAVPNIILTNQ [K1D] | 1.48 |
| FLLSVIVWMLMLLLAVPNIILTNQ [K1F] | 3.58 |
| GLLSVIVWMLMLLLAVPNIILTNQ [K1G] | 2.55 |
| HLLSVIVWMLMLLLAVPNIILTNQ [K1H] | 4.35 |
| ILLSVIVWMLMLLLAVPNIILTNQ [K1I] | 2.53 |
| LLLSVIVWMLMLLLAVPNIILTNQ [K1L] | 3.3 |
| PLLSVIVWMLMLLLAVPNIILTNQ [K1P] | 2.13 |
| QLLSVIVWMLMLLLAVPNIILTNQ [K1Q] | 4.07 |
| RLLSVIVWMLMLLLAVPNIILTNQ [K1R] | 2.35 |
| WLLSVIVWMLMLLLAVPNIILTNQ [K1W] | 1.35 |
| YLLSVIVWMLMLLLAVPNIILTNQ [K1Y] | 3.13 |
| KCLSVIVWMLMLLLAVPNIILTNQ [L2C] | 3.88 |
| KDLSVIVWMLMLLLAVPNIILTNQ [L2D] | 2.67 |
| KFLSVIVWMLMLLLAVPNIILTNQ [L2F] | 2.29 |
| KGLSVIVWMLMLLLAVPNIILTNQ [L2G] | 2.21 |
| KILSVIVWMLMLLLAVPNIILTNQ [L2I] | 3.46 |
| KKLSVIVWMLMLLLAVPNIILTNQ [L2K] | 2.76 |
| KNLSVIVWMLMLLLAVPNIILTNQ [L2N] | 1.89 |
| KPLSVIVWMLMLLLAVPNIILTNQ [L2P] | 3.19 |
| KLASVIVWMLMLLLAVPNIILTNQ [L3A] | 2.27 |
| KLESVIVWMLMLLLAVPNIILTNQ [L3E] | 2.78 |
| KLFSVIVWMLMLLLAVPNIILTNQ [L3F] | 3.42 |
| KLHSVIVWMLMLLLAVPNIILTNQ [L3H] | 1.3 |

| Variant | protein stability index |
| --- | --- |
| KLISVIVWMLMLLLAVPNIILTNQ [L3I] | 1.73 |
| KLKSVIVWMLMLLLAVPNIILTNQ [L3K] | 3.61 |
| KLMSVIVWMLMLLLAVPNIILTNQ [L3M] | 1.64 |
| KLNSVIVWMLMLLLAVPNIILTNQ [L3N] | 4.61 |
| KLSSVIVWMLMLLLAVPNIILTNQ [L3S] | 2.35 |
| KLTSVIVWMLMLLLAVPNIILTNQ [L3T] | 2.93 |
| KLWSVIVWMLMLLLAVPNIILTNQ [L3W] | 3.69 |
| KLYSVIVWMLMLLLAVPNIILTNQ [L3Y] | 2.55 |
| KLLFVIVWMLMLLLAVPNIILTNQ [S4F] | 2.98 |
| KLLGVIVWMLMLLLAVPNIILTNQ [S4G] | 2.85 |
| KLLHVIVWMLMLLLAVPNIILTNQ [S4H] | 3.18 |
| KLLIVIVWMLMLLLAVPNIILTNQ [S4I] | 2.44 |
| KLLKVIVWMLMLLLAVPNIILTNQ [S4K] | 5.66 |
| KLLNVIVWMLMLLLAVPNIILTNQ [S4N] | 2.81 |
| KLLPVIVWMLMLLLAVPNIILTNQ [S4P] | 3.34 |
| KLLQVIVWMLMLLLAVPNIILTNQ [S4Q] | 2.56 |
| KLLRVIVWMLMLLLAVPNIILTNQ [S4R] | 2.78 |
| KLLTVIVWMLMLLLAVPNIILTNQ [S4T] | 2.53 |
| KLLVVIVWMLMLLLAVPNIILTNQ [S4V] | 3.9 |
| KLLWVIVWMLMLLLAVPNIILTNQ [S4W] | 4.74 |
| KLLYVIVWMLMLLLAVPNIILTNQ [S4Y] | 2.82 |
| KLLSAIVWMLMLLLAVPNIILTNQ [V5A] | 3.26 |
| KLLSDIVWMLMLLLAVPNIILTNQ [V5D] | 3.22 |

| Variant | protein stability index |
| --- | --- |
| KLLSEIVWMLMLLLAVPNIILTNQ [V5E] | 2.42 |
| KLLSFIVWMLMLLLAVPNIILTNQ [V5F] | 2.09 |
| KLLSGIVWMLMLLLAVPNIILTNQ [V5G] | 4.02 |
| KLLSHIVWMLMLLLAVPNIILTNQ [V5H] | 3.85 |
| KLLSIIVWMLMLLLAVPNIILTNQ [V5I] | 3.93 |
| KLLSKIVWMLMLLLAVPNIILTNQ [V5K] | 2.52 |
| KLLSLIVWMLMLLLAVPNIILTNQ [V5L] | 2.11 |
| KLLSMIVWMLMLLLAVPNIILTNQ [V5M] | 1.71 |
| KLLSNIVWMLMLLLAVPNIILTNQ [V5N] | 2.29 |
| KLLSPIVWMLMLLLAVPNIILTNQ [V5P] | 2.54 |
| KLLSQIVWMLMLLLAVPNIILTNQ [V5Q] | 2.35 |
| KLLSRIVWMLMLLLAVPNIILTNQ [V5R] | 2.79 |
| KLLSSIVWMLMLLLAVPNIILTNQ [V5S] | 3.98 |
| KLLSTIVWMLMLLLAVPNIILTNQ [V5T] | 3.51 |
| KLLSWIVWMLMLLLAVPNIILTNQ [V5W] | 2.74 |
| KLLSYIVWMLMLLLAVPNIILTNQ [V5Y] | 2.63 |
| KLLSVAVWMLMLLLAVPNIILTNQ [I6A] | 2.45 |
| KLLSVDVWMLMLLLAVPNIILTNQ [I6D] | 2.02 |
| KLLSVFVWMLMLLLAVPNIILTNQ [I6F] | 2.8 |
| KLLSVGVWMLMLLLAVPNIILTNQ [I6G] | 2.2 |
| KLLSVLVWMLMLLLAVPNIILTNQ [I6L] | 4.14 |
| KLLSVMVWMLMLLLAVPNIILTNQ [I6M] | 3.13 |
| KLLSVNVWMLMLLLAVPNIILTNQ [I6N] | 3.01 |
